From patent US20170114104A1

Molecular target: Biotin-AP (biotinylated AP-peptide with a fluorescent dye)
Test: native-PAGE off-rate under excess biotin, 37 °C

| Binder | koff [s⁻¹] |
| --- | --- |
| Monodin (MA) (designed binder) FDASNFKDFSSIASASSSWQNQHGSTMIIQVDSFGNVSGQYVNRAEGTGCQNSPYPLTGRVNGTFIDFSVKWNNSTENCNSNTQWTGYAQVNGNNTEIVTRWNLKYEGGSGPAIWQGQDTFQYVPTTE | 5.1e-05 |
| Rhizavidin (RA) (protein) FDASNFKDFSSIASASSSWQNQSGSTMIIQVDSFGNVSGQYVNRAQGTGCQNSPYPLTGRVNGTFIAFSVGWNNSTENCNSATGWTGYAQVNGNNTEIVTSWNLAYEGGSGPAIEQGQDTFQYVPTTE | 4.9e-05 |
